The values below come from publication PMC9521928.

This experiment deals with CPXV14-His (His-tagged recombinant cowpox virus Brighton Red CPXV14) (cowpox virus (Brighton Red strain)). The experiment is described as follows: BLI; […] (10 μg/mL, 2 min), […]; PBS pH 7.4, 0.005% Tween-20; 25°C; steady-state fit, 1:1 binding model; […]. (In general: In BLI a coated tip is dipped into the sample, and binding shifts an interference pattern.)

What is called Kd is a measure of binding affinity in units of concentration. “soluble recombinant murine FcγRIIB (mCD32B) ectodomain (from UniProt P08101 30-210) (receptor)”: the Kd turned out to be 3.6 nM.
